Results: a protein production outcome set (Wang et al. 2014)

Test: label from the status in PepcDB records
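Further: failed if final PepcDB status was selected cloned or expressed and not failed if soluble or beyond.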

Q: With “MIRCLHVLYVRHVMLMSTIHHTKRTLQPYFALVRAPFLVFTAIVILLPAAAAAEAGILNVTNTLLAFGSVLAAHVAVNILNLASDYRTGIDEATDETPYSGGNDVLVSGTLSYRRALAAGVIAILASALFVVPLVSQFGGIVLLFYGVGTVLVVGYTDVFARIGLGEFACGAGLTFLPTVAVGYIQAGTFPESVLYLSVPMFLVGFNLLLLNEFPDVEADRTNGRVNIPVVLGRQTAGYIYFGLVGVLVASLLYPIATGALPATVAVAILPIALLAPIFRTVVLEGNGDLTDDELGNHILWTQTTIVALAVGMAAAAVL” as the sequence, how does the protein production read?
A: Its protein production is “failed”.

Q: Which protein production does the source give for “MSDLEVQVPTAFDPFADANAEDSGAGTKEYVHIRVQQRNGRKSLTTVQGLKKEYSYSKILKDLKKEFCCNGTVVQDSELGQVIQLQGDQRKNVSTFLVQAGLVKKDNIKIHGF” here?
A: Its protein production is “failed”.

Q: Which protein production does the source give for “MIKEWATVVSWQNGQAVVSCDVKASCSSCASRAGCGSRVLNKLGPQTTHTIVVPSAEPLAPGQKVELGIAEKSLLGSALLVYMSPLAGLFLCAALFQMLFGSDLAALSGAVLGGVGGFLVARGYSRKLAERDAWQPVILNVALPPDLVRVETTSIETRQ” here?
A: Its protein production is “failed”.

Q: Which protein production does the source give for “MSTFAFNLGGEFDKSFLSTPKAYGDVIKALPQNASKIELDYASVYDYDTDGCYATAAISPDGTTNPGLSLGGSPESVCRDVNRLENSNTYSRAKSNNGWTAIMYASYFEKDQSTSGPVALGHRHDWEHTIVWVKDSQVQYVTYSAHGNWYTNPRSNVRFDGNHPKIVYHKDGGSTHAFRLANSNDEPPENYYHQWLQLPMVGWNGYPSPNIREKLMTTNFGDATLEIKDGRFEKALANAKPPINFDPYAPELEDGGTYQIVSILNNSSVVDLNQADGNVQLWQNGNANNQKWKLVYDSNKSAYQIKNIANQNLVLTWNNLNGSNNVVATTNQNKEEQYWIPTEAGNGYYYVRNKKDQNKVLDVSGYGTANGTNVTVYNFHGGNNQTFQLSNVTGTLTREVESLYKAQPGQTSRSSNNFSLEHLAAGTKVRVVLEGAGATSLSFKIARDKSGTDPVIWSNVRDGSILTIPSGDDRKNLYIAGPPSGYTSNGTFKVKFYALPN” here?
A: Its protein production is “failed”.

Q: Which protein production does the source give for “MKRKVQVKNITIGEGRPKICVPIIGKNKKDIIKEAKELKDACLDIIEWRVDFFENVENIKEVKEVLYELRSYIHDIPLLFTFRSVVEGGEKLISRDYYTTLNKEISNTGLVDLIDVELFMGDEVIDEVVNFAHKKEVKVIISNHDFNKTPKKEEIVSRLCRMQELGADLPKIAVMPQNEKDVLVLLEATNEMFKIYADRPIITMSMSGMGVISRLCGEIFGSALTFGAAKSVSAPGQISFKELNSVLNLLHKSIN” here?
A: The protein production was “not failed”.

Q: For “MSLNLTIGTSKFNPPFEVWSGNNSSLYGFDIDLMQEICRRLHATCTFEAYIFDDLFPALKNREVDLVIASMIITDERKKHFIFSLPYMESNSQYITTVDSKISTFDDLHGKKIGVRKGTPYARQVLSENRNNQVIFYELIQDMLLGLSNNQVDASLMDYEAAKYWMASEPYAYKLIGKKYKLIGKKISIGEGYSIMANPDQFVLIKKINKILLEMEADGTYLRLYSEYFEGHHHHHH”, which protein production is on record?
A: The protein production was “not failed”.

Q: For “MCQESVIVMQATQPLQTVSQAVPKEFLQADGGFNPNVAMFGIAILLMLANVFGYWQWGLPHWLCFSCSVLALHLSGTVIHDASHNAAHRNTIINAVLGHGSALMLGFAFPVFTRVHLQHHANVNDPENDPDHFVSTGGPLFLIAARFFYHEIFFFKRRLWRKYELLEWFLSRLVLFTIVFLGIHYGFIGFVMNYWFVPALIVGIALGLFFDYLPHRPFQERNRWKNARVYPSPILNWLIFGQNYHLIHHLWPSIPWYQYQNTYHITKPILDEKGCDQSLGLLEGKNFWSFLYDVFLGIRFHGHNNSQSSDKP”, which protein production is on record?
A: The protein production was “failed”.

Q: For “MIKETVFKSFDTPSALEQQLASKIASQLQEAVDARGKASLVVSGGSTPLKLFQLLSMKSIDWSDVYITLADERWVEADADASNERLVREHLLQNRASNAKFRGLKNMFSTAEAGADMAAESLSNFPRPFDVVVLGMGNDGHTCSWFPCSAELENALTTQALCVATNPTTAPHGRITLSKSAILNSRQIYLHLVGEQKLSVYRQALESDDVHAMPIRAVLAQRKTPVDVFWSA”, which protein production is on record?
A: The protein production was “not failed”.

Q: For “GSAASSALKGLIQQFTTITGASESVGKHMLEACNNNLEMAVTMFLDGGG”, which protein production is on record?
A: Its protein production is “not failed”.

Q: Which protein production does the source give for “MKTLVIVAHPNLETSVVHKRWVEELKKYPEKYTVHELSDVYPDGNIDAEKEQKLVESHGNLVLQFPIYWFNCPPLLKKWLDDVLAYGWAYGSNGGDRLNNRKVALGVSAGIKEEDYRENGRYRYTLEQILVPFETTFRYCRADYRSFFAFYGKEKEPGGNEEEENEPGAGELEKSARDYLHFIDHM” here?
A: Its protein production is “failed”.

Q: For “NMPRLRMLMSAFPKGGDLHHHLAGAIDAETMLQWAGDQNLCIDTIKLSVIPSPCDAAVNKKPAKNLERQDPILWNKLIDVFSMRNYHFDVAAGEHSGHDHFFSSFFHFAAALDNNFGRMIAYSRRDAAANNLLYIETMQNPKVVSTFARSVLQDAKGKNSPEDLWKVVKDRLPAAVAAAKAETTEAEAQSRQILQCDGRQPDPACSVTMRYMVFAVRAMPPEMVFAQLALGFALAHSDPRWVGVNIVAPEDGAVSMQDYDLHMQFFRFLRQLYPDVKITLHAGELALPLVPTAGLRDHIRKAVFVAGADRIGHGIDIGSEMNPVEILHHMAERPVPVEINLSSNDAILNIKGNQHPFALYRQYNVPVVISTDDAGVSRNDLTTEYMRAIEEQHVSYSDLKKLSRDSLEYAFLSGEGLWQKNTGESVKPVCSGIAFTAMPQGKCADFLVKNDKAALQWKLEAAFIRYEEQVREGA”, which protein production is on record?
A: The protein production was “failed”.

Q: With “MVEFLNKKKKSAQRPINLNGSFIFILILTFEFERRVKVDTADIFQRTMMLIGEDGLKKLSNVNIAVCGLGGVGSFAFEALVRCGIQNFVILDKDRVSVSNLNRQLIATVSNIGKSKVDIAYERALDINPFVNVVKVQKEINPENVEELLGNTKIDYIVDAIDDVSAKIALIKFAISRGIKIISSMGMGNRLNPSLLRISDIYSTKNCPLAKKIRSILRKEGIKKLKVVYSEEKPLKPDYKFLKEKTQKAHVPGSISFVPPVAGFLMAYEVVKDLLGW” as the sequence, how does the protein production read?
A: Its protein production is “failed”.

Q: With “MFIIIGDLIAFVISVLVTLIIASVPVWVAAKIVAKRSTFGQAVAATLLSLIIFFILLFVFSIFTPFIGGIFGFIGALWVFRKVYNIGWVDSLALTIIAIFIAIMIYIILGAFLFPVIHTSMIHEHAVVTSIIV” as the sequence, how does the protein production read?
A: The protein production was “failed”.

Q: For “MAAQVEIEDQESVTNLDNGEIINPISDNAPNFSGDATILLREATFEHNLIKNCFLSGMGSFATETTIVTVRKILTQRLITTKAKFAVFKLFTEAMKRKNNGYANIRYGWYSGSKEEIDRVITYGFSNREIKKVENDVGSHGVGIHLVHHRYSLAAALVGEGDEEGIKNILLCRVILGKPEQIVTGSKQSYPSSNQFDSGVDNLENPRKYVIWSCNMNSYILPTYIVSFKSHLLRGLIGRARSPCVSFSVLMSILSKSLDAARMNLILTSYDDFRKRKLRREQLVRKIREVVGDNLLFKILKNQRR”, which protein production is on record?
A: Its protein production is “not failed”.

Q: With “DRRYKWQTVVSEQLVGAGFNEILNNSLTAGSYYEGLKTHPREMAVELMNPLSQELNCMRQTLLFGGLETLSHNLRRKHLSLYLFEWGKCYRFHAAKRTDETPLSAYAEDDRLGIWICGQRVHNSWAHPEEPTSVFELKAVVEQVLCRVGIETGAYTLETADNDLYASAMEVKTRSGKLLGTFGTVSTEQIKRFDIEQPVYFAELLWDALMSESARYKLEARD” as the sequence, how does the protein production read?
A: Its protein production is “failed”.

Q: For “MASKSQKKVLKKQNKKKKKDPLAPKRALSAYMFYVKDKRLEIIKEKPELAKDVAQVGKLIGEAWGQLSPAQKAPYEKKAQLDKVRYSKEIEEYRKKNQE”, which protein production is on record?
A: Its protein production is “failed”.

Q: For “MSSSLDLAPELSVASTHPASTLAGHQPDLVLSPRLHNRDLAPTRMEGRRWGGYSIFALWTNDVHNIANYSFAMGLFALGLGGWQILLSLAIGAALVYFFMNLSGYMGQKTGVPFPVISRIAFGIHGAQIPALIRAVIAIAWFGIQTYLASVVLRVLLTAVWPQIAAYDHDSILGLSSLGWVCFVSIWLVQLVILAYGMEMVRRYEAFAGPVILLTVAALAVFMYFKADARIAWSVATPLTGYEMWRNIFAGGALWLAIYGTLVLNFCDFARSSPCRKTIRVGNFWGLPVNILVFAVITVVLCGAQFQINGQIIDSPTQIVAAIPSTPFLVLGCLAFLIVTVAVNIMANFVAPAFVLSNLAPRHLNFRRAGLISATLAVLILPWNLYNSPLVIVYFLSGLGALLGPLYGVIMSDYWLLRKGCINVPELYTEHPAGAYHYSKGINLRAVAAFVPAALLAIVLALVPNFQGIAPFSWLIGAGIAAALYLLIAPRNRHYHDVSGECIAVDHSGH”, which protein production is on record?
A: Its protein production is “failed”.

Q: Which protein production does the source give for “MEKHKIALISDWYFPKVGGIEYSIHALAKTLNQRGHKVHVITRCYPNIPEYNIRDGVAIIRIKSSPFPGQQRFLMPGAYKELYRLLKEGNYDIINSHGLDSPLGMIALIAARKLGIPSVVTNHSLVGHTPLRLYLYLAGKLLVGNADAVIAVSSAVEKDTKLMTKKPVYRIFNGMEYEESNPIAPLPFDRKGKLVIITVARMTKKKGVQNLIGLAPSFLKKYENLIFLMIGDGPLLKNLEKKVEESGLSENFYFTGEVPRKAVLEYLEQADIFALPSSDEAFGISILEAISKNVPVVAMNHSGISDIITHGVNGYLADNLSEFASCLQDLIEKPALRAEFARKAGEGLSNYDWNKIYEQTCRVYREVIYEKHHHNS” here?
A: The protein production was “failed”.

Q: For “MVGGGSKHVGEGSKPRATKDDAYAYLRAVRAKFHNDSKKYDDFVAVMTNFKARRIDRDGCIKEVEQLLKGHRDLISGFNAFLPKCLEIKNYYFGAGEDLEVVYTAKRKLLARSVTKRSSSSSSSSSVYFLFRSCEII”, which protein production is on record?
A: Its protein production is “failed”.

Q: With “MNKKRTVDLIHGPILPSLLSFTFPILLSNIFQQLYNTADVLIVGRFLGQESLAAVGATTAIFDLIVGFTLGVGNGMGIVIARYYGARNFTKIKEAVAATWILGALLSILVMLLGFLGLYPLLQYLDTPAEILPQSYQYISMIVTCVGVSFAYNLFAGLLRSIGDSLAALGFLIFSALVNVVLDLYFITQLHLGVQSAGLATIISQGLSAVLCFYYIRKSVPELLPQFKHFKWDKSLYADLLEQGLAMGLMSSIVSIGSVILQFSVNTFGAVIISAQTAARRIMTFALLPMTAISASMTTFASQNLGAKRPDRIVQGLRIGSRLSISWAVFVCIFLFFASPALVSFLASSTDGYLIENGSLYLQISSTFYPILSLLLIYRNCLQGLGQKILPLVSSFIELIGKIVFVVLIIPWAGYKGVILCEPLIWVAMTVQLYFSLFRHPLIKEGKAILATKVQS” as the sequence, how does the protein production read?
A: The protein production was “failed”.

Q: For “MGKIFCIVQARMGSERLQGKVIKPILKKPMVIYTLDRLKKSKYIDKIVLATSSMERETPLVESCEEYGYDVFKGSEANVLKRYEQAAEKYGANIEDAVIRVTGDCPLIDPIIVDNVVTKFLSSDYDYVRLDVPNTFVRGFDVEIFSMKALKTVNSLINGGKIPKEEADMYKEHVTLYMYKHPNEFKVGYVKGDEFYSKDYRLCVDTKEDFELVKNIYEHFNDEFVSSKNVINYLDRNSEIAQINNDIKQKEVLEHHHHHH”, which protein production is on record?
A: Its protein production is “not failed”.

Q: Which protein production does the source give for “MNLKQIAKDTAKTLQSYLTYQALMTVLAQLGETNPPLALWLHTFSVGKVQDGEAYVKELFREQPDLALRIMTVREHIAEEVAEFLPEMVRSGIQQANMEQRRQHLERMTHLSLSNPSPESEQQTISDTDWDH” here?
A: The protein production was “failed”.

Q: With “MKKNKIGGSQSMFNKVWFRTGIFFIMLFILIKLFMEVHEVFAPIATIIGSVFLPFLISGFLFYICLPFQNILEKWGFPRWASITTIFIGLIVIIAIVVSFIAPIIISNINNLIKQTPSLQKEAEQLINFSLRQMDKLPDDVTHRINKAVKSMGDGATSILSNSVSYITSFISTVFLLIMVPFFLIYMLKDHEKFIPAIGKFFKGERKVFVVDLLKDLNFTLKSYIQGQVTVSIILGIILYIGYTIIGLPYTPLLVLFAGVANLIPFLGPWLSFAPAAILGIIDGPSTFIWVCVVTLIAQQLEGNVITPNVMGKSLSIHPLTIIVVILAAGDLGGFTLILVAVPLYAVIKTLVSNIFKYRQRIVDKANSNVKD” as the sequence, how does the protein production read?
A: The protein production was “failed”.

Q: Which protein production does the source give for “MEKRELKASVPKFDKIPWLSEASLVNKPLVLSLPRRYPHTSATFLTSSKKNMNLPILFQVPDVLSKARRNQCDSMLLRNQQLCSTCQEMKMVQPRTMKIPDDPKASFENCMSYRMSLHQPKFQTTPEPFHDDIPTENIHYRLPILGPRTAVFHGLLTEAYKTLKERQRSSLPRKEPIGKTTRQ” here?
A: Its protein production is “failed”.
